Experimental data: article PMC10715591, “EspB and HtpG interact with the type III-A CRISPR/Cas system of Mycobacterium tuberculosis” (Frontiers in Molecular Biosciences, 2023)

Target: T1, ESX-1 secretion-associated protein EspB (Mycobacterium tuberculosis H37Rv, UniProt P9WJD9 1-460)
T1 construct: also called Esx-1 secreted protein B
Assay: SPR; Biacore 8K, 25°C; EspB covalently immobilised on a CM5 chip; analytes injected at 25-3,200 nM, 30 uL/min for 2 min; global fit to a 1:1 mass transport model
Conditions: both partners purified

T1 sequence (P9WJD9 whole entry): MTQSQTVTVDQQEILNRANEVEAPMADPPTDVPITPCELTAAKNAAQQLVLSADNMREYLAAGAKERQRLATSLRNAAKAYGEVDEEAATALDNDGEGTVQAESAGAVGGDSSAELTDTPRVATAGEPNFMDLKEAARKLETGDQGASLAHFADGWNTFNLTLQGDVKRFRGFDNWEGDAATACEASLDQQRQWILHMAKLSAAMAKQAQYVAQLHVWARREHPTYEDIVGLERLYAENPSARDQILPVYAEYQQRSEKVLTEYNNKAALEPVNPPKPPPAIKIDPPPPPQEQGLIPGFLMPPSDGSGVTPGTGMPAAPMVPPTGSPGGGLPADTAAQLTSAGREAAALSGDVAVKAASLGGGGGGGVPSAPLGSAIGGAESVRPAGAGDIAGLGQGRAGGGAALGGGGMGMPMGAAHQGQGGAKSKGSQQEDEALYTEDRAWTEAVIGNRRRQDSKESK

Row | Binder | Kd | koff | kon
1 | MtbCsm6 (natural protein) MILFSPIGTADPITALGDGPMLHIVRHYRPIVVVLFLSAEIAAFENADRRYSAAITRLAPETDVRIVTYTNPSVHRFDLFVPVFRNHLVELSAEFPDRTILLNTSSGTPAMQAALVAINVFGIPRTTAVQVSTPARALSKPGDRESPDAYDLELMWDANDDNQPGAPNRCFEATSAALGALLERANLKQLIVSYDYSAAVTIAADSRLPDQVSNLIRGAMHRSRLEHLVAPKFFKDTAFTYDPANKVAEYISALALLAKREQWAEFARSATPAITIVLRAAVAKHLPEDRYLDDMGRVDRRKLEREPEIRCALKHPPKSPNAEWYLYTKDWLALLRQFAPDRVGALEVLGRFESRVRNTAAHEIVSISEDRITKDGGLLPEQLLKILARETGADLTLYDRLNDEIIRQIDMAPLG | 0.0316 nM | 5.83e-07 s⁻¹ | 18400 M⁻¹ s⁻¹
2 | MtbCsm3 (natural protein) MTTSYAKIEITGTLTVLTGLQIGAGDGFSAIGAVDKPVVRDPLSRLPMIPGTSLKGKVRTLLSRQYGADTETFYRKPNEDHAHIRRLFGDTEEYMTGRLVFRDTKLTNKDDLEARGAKTLTEVKFENAINRVTAKANLRQMERVIPGSEFAFSLVYEVSFGTPGEEQKASLPSSDEIIEDFNAIARGLKLLELDYLGGSGTRGYGQVKFSNLKARAAVGALDGSLLEKLNHELAAV | 1.9 nM | 0.000462 s⁻¹ | 243000 M⁻¹ s⁻¹
3 | MtbCsm2 (natural protein) MSVIQDDYVKQAEVIRGLPKKKNGFELTTTQLRVLLSLTAQLFDEAQQSANPTLPRQLKEKVQYLRVRFVYQSGREDAVKTFVRNAKLLEALEGIGDSRDGLLRFCRYMEALAAYKKYLDPKDK | 0.125 nM | 8.3e-07 s⁻¹ | 6660 M⁻¹ s⁻¹
